One molecule from patent US20120148575A1 (published 2012) can be followed below.

This experiment addresses Control. Briefly: SPR.

What is called Kd is the equilibrium constant for the complex coming apart.

B1: muFcgRIV (receptor)
chain: GLQKAVVNLDPKWVRVLEEDSVTLRCQGTFSPEDNSIKWFHNESLIPHQDANYVIQSARVKDSGMYRCQTALSTISDPVQLEVHMGWLLLQTTKWLFQEGDPIHLRCHSWQNRPVRKVTYLQNGKGKKYFHENSELLIPKATHNDSGSYFCRGLIGHNNKSSASFRISLGDPGSPSMFPPWHQ
As to B1, binding was put at a Kd of 329 nM.
